Key:
PRRC2C (human) = PRRC2C (human) (UniProt Q9Y520); assay: co-IP with anti-FLAG, C-FLAG B3GNT2, mass spectrometry
RPS24 (human) = RPS24 (human) (UniProt P62847); assay: as above
EIF3A (human) = EIF3A (human) (UniProt Q14152); assay: as above
TTC13 (human) = TTC13 (human) (UniProt Q8NBP0); assay: as above
COPA (human) = COPA (human) (UniProt P53621); assay: as above
TBL2 (human) = TBL2 (human) (UniProt Q9Y4P3); assay: as above
SYNM (human) = SYNM (human) (UniProt O15061); assay: as above
DHX9 (human) = DHX9 (human) (UniProt Q08211); assay: as above
RPL7A (human) = RPL7A (human) (UniProt P62424); assay: as above
RUVBL2 (human) = RUVBL2 (human) (UniProt Q9Y230); assay: as above
KCTD5 (human) = KCTD5 (human) (UniProt Q9NXV2); assay: as above
RPL8 (human) = RPL8 (human) (UniProt P62917); assay: as above
RHOT2 (human) = RHOT2 (human) (UniProt Q8IXI1); assay: as above
RPL7 (human) = RPL7 (human) (UniProt P18124); assay: as above
HNRNPH1 (human) = HNRNPH1 (human) (UniProt P31943); assay: as above
ARPC1B (human) = ARPC1B (human) (UniProt O15143); assay: as above
IL13RA2 (human) = IL13RA2 (human) (UniProt Q14627); assay: as above
RPS26 (human) = RPS26 (human) (UniProt P62854); assay: as above
PURA (human) = PURA (human) (UniProt Q00577); assay: as above
RPS27A (human) = RPS27A (human) (UniProt P62979); assay: as above
CPT1A (human) = CPT1A (human) (UniProt P50416); assay: as above
TPM2 (human) = TPM2 (human) (UniProt P07951); assay: as above
SPARC (human) = SPARC (human) (UniProt P09486); assay: as above
GSN (human) = GSN (human) (UniProt P06396); assay: as above
SYNPO (human) = SYNPO (human) (UniProt Q8N3V7); assay: as above
GBF1 (human) = GBF1 (human) (UniProt Q92538); assay: as above
RPL28 (human) = RPL28 (human) (UniProt P46779); assay: as above
TM9SF1 (human) = TM9SF1 (human) (UniProt O15321); assay: as above
SYNCRIP (human) = SYNCRIP (human) (UniProt O60506); assay: as above
TELO2 (human) = TELO2 (human) (UniProt Q9Y4R8); assay: as above
PLOD1 (human) = PLOD1 (human) (UniProt Q02809); assay: as above
RACK1 (human) = RACK1 (human) (UniProt P63244); assay: as above
XPO1 (human) = XPO1 (human) (UniProt O14980); assay: as above
LAMC1 (human) = LAMC1 (human) (UniProt P11047); assay: as above
IFI16 (human) = IFI16 (human) (UniProt Q16666); assay: anti-FLAG co-IP from lysate of C-FLAG B3GNT2 cells, mass spectrometry
ZRANB2 (human) = ZRANB2 (human) (UniProt O95218); assay: as above
KTN1 (human) = KTN1 (human) (UniProt Q86UP2); assay: as above
TRAFD1 (human) = TRAFD1 (human) (UniProt O14545); assay: as above
H1FX (human) = H1FX (human) (UniProt Q92522); assay: as above
TUBA1C (human) = TUBA1C (human) (UniProt Q9BQE3); assay: as above

C-terminal FLAG tagged B3GNT2 (from UniProt Q9NY97 1-397) (enzyme)
co-IP/MS count, C-term flag (PRRC2C (human)): 15
co-IP/MS count, C-term flag (RPS24 (human)): 8
co-IP mass spectrometry count (EIF3A (human)): 3
co-IP/MS count, C-term flag (TTC13 (human)): 4
co-IP/MS count, C-term flag (COPA (human)): 2
co-IP mass spectrometry count (TBL2 (human)): 5
co-IP mass spectrometry count (SYNM (human)): 5
co-IP mass spectrometry count (DHX9 (human)): 5
co-IP/MS count, C-term flag (RPL7A (human)): 22
co-IP/MS count, C-term flag (RUVBL2 (human)): 4
co-IP mass spectrometry count (KCTD5 (human)): 3
co-IP mass spectrometry count (RPL8 (human)): 15
co-IP mass spectrometry count (RHOT2 (human)): 2
co-IP mass spectrometry count (RPL7 (human)): 21
co-IP/MS count, C-term flag (HNRNPH1 (human)): 15
co-IP/MS count, C-term flag (ARPC1B (human)): 5
co-IP mass spectrometry count (IL13RA2 (human)): 2
co-IP mass spectrometry count (RPS26 (human)): 11
co-IP/MS count, C-term flag (PURA (human)): 3
co-IP mass spectrometry count (RPS27A (human)): 27
co-IP/MS count, C-term flag (CPT1A (human)): 2
co-IP/MS count, C-term flag (TPM2 (human)): 4
co-IP/MS count, C-term flag (SPARC (human)): 4
co-IP mass spectrometry count (GSN (human)): 3
co-IP mass spectrometry count (SYNPO (human)): 7
co-IP mass spectrometry count (GBF1 (human)): 5
co-IP mass spectrometry count (RPL28 (human)): 16
co-IP/MS count, C-term flag (TM9SF1 (human)): 4
co-IP mass spectrometry count (SYNCRIP (human)): 13
co-IP mass spectrometry count (TELO2 (human)): 3
co-IP/MS count, C-term flag (PLOD1 (human)): 4
co-IP mass spectrometry count (RACK1 (human)): 3
co-IP/MS count, C-term flag (XPO1 (human)): 2
co-IP/MS count, C-term flag (LAMC1 (human)): 4
co-IP mass spectrometry count (IFI16 (human)): 2
co-IP mass spectrometry count (ZRANB2 (human)): 3
co-IP mass spectrometry count (KTN1 (human)): 2
co-IP mass spectrometry count (TRAFD1 (human)): 2
co-IP mass spectrometry count (H1FX (human)): 2
co-IP mass spectrometry count (TUBA1C (human)): 63
